Assay results taken from PMC6987120, “Structural insights into ATP hydrolysis by the MoxR ATPase RavA and the LdcI-RavA cage-like complex” (Communications Biology, 2020).
Where “and” joins values, the source holds several entries; their conditions need not be identical. Equal values may be shown once.

B3: acid stress-inducible lysine decarboxylase LdcI (enzyme, E. coli)
chain: MNVIAILNHMGVYFKEEPIRELHRALERLNFQIVYPNDRDDLLKLIENNARLCGVIFDWDKYNLELCEEISKMNENLPLYAFANTYSTLDVSLNDLRLQISFFEYALGAAEDIANKIKQTTDEYINTILPPLTKALFKYVREGKYTFCTPGHMGGTAFQKSPVGSLFYDFFGPNTMKSDISISVSELGSLLDHSGPHKEAEQYIARVFNADRSYMVTNGTSTANKIVGMYSAPAGSTILIDRNCHKSLTHLMMMSDVTPIYFRPTRNAYGILGGIPQSEFQHATIAKRVKETPNATWPVHAVITNSTYDGLLYNTDFIKKTLDVKSIHFDSAWVPYTNFSPIYEGKCGMSGGRVEGKVIYETQSTHKLLAAFSQASMIHVKGDVNEETFNEAYMMHTTTSPHYGIVASTETAAAMMKGNAGKRLINGSIERAIKFRKEIKRLRTESDGWFFDVWQPDHIDTTECWPLRSDSTWHGFKNIDNEHMYLDPIKVTLLTPGMEKDGTMSDFGIPASIVAKYLDEHGIVVEKTGPYNLLFLFSIGIDKTKALSLLRALTDFKRAFDLNLRVKNMLPSLYREDPEFYENMRIQELAQNIHKLIVHHNLPDLMYRAFEVLPTMVMTPYAAFQKELHGMTEEVYLDEMVGRINANMILPYPPGVPLVMPGEMITEESRPVLEFLQMLCEIGAHYPGFETDIHGAYRQADGRYTVKVLKEESKK
notes: LdcI, inducible lysine decarboxylase of E. coli; Decamer in the cryo-EM maps of the cage; Buffers held 0.1 mM PLP; source: ppGpp-/- E. coli strain (MG1655 ΔrelA ΔspoT), purified as previously described; copies: 10

Columns and labels:
[1] = target: T1, LdcI (acid stress-inducible lysine decarboxylase) (E. coli, UniProt P0A9H3 1-715); assay: BLI; biotinylated RavA-AviTag incubated with 1 mM ADP for 10 min, on streptavidin biosensors, quenched with biocytin; LdcI 500-31.25 nM in solution; pH 5.0 (1x MES pH 5, with 1x kinetics buffer, 1 mM ADP, 1 mM DTT, 0.1 mM PLP); 293 K, Octet RED96; 1:1 interaction model; details: both partners purified
T1 construct: Inducible lysine decarboxylase LdcI of E. coli; 0.1 mM PLP in the BLI buffer; also called lysine decarboxylase LdcI; source: E. coli ppGpp-/- strain MG1655 ΔrelA ΔspoT, purified as previously described
T1 sequence: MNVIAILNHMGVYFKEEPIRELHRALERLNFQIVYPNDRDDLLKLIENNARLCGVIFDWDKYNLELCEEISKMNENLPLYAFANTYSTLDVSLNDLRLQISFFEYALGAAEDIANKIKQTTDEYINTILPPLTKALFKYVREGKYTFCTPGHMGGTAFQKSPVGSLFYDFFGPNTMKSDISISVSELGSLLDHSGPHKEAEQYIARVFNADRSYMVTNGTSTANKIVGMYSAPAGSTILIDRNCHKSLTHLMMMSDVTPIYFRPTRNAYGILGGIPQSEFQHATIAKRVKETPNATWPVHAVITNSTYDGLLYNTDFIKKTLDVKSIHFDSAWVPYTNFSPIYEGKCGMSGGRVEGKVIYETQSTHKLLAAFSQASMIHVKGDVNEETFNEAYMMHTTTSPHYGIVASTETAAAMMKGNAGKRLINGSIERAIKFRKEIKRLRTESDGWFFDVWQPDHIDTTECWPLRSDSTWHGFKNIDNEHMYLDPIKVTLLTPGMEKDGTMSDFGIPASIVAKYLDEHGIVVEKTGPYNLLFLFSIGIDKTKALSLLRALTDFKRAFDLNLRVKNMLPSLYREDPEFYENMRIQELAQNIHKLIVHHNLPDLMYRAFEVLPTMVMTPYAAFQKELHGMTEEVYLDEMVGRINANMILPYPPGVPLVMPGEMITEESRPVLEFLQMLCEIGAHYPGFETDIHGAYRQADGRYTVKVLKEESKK

[2] = target: T1, LdcI (acid stress-inducible lysine …); assay: BLI; biotinylated RavA-AviTag on streptavidin biosensors WITHOUT prior incubation with ADP, quenched with biocytin; LdcI 500-31.25 nM in solution; pH 7.0 (1x HBS: 25 mM HEPES, 300 mM NaCl, 10 mM MgCl2, 10% glycerol, with 1x kinetics buffer, 1 mM DTT, 0.1 mM PLP); 293 K, Octet RED96; 1:1 interaction model; details: both partners purified
[3] = target: T1, LdcI (acid stress-inducible lysine …); assay: BLI; biotinylated RavA-AviTag incubated with 1 mM ADP for 10 min, on streptavidin biosensors, quenched with biocytin; LdcI 500-31.25 nM in solution; pH 6.5 (1x MES: 25 mM MES, 300 mM NaCl, 10 mM MgCl2, 10% glycerol, with 1x kinetics buffer, 1 mM ADP, 1 mM DTT, 0.1 mM PLP); 293 K, Octet RED96; 1:1 interaction model; details: both partners purified
[4] = target: T1, LdcI (acid stress-inducible lysine …); assay: BLI; biotinylated RavA-AviTag incubated with 1 mM ADP for 10 min, on streptavidin biosensors, quenched with biocytin; LdcI 500-31.25 nM in solution; pH 8.0 (1x TBS: 25 mM Tris, 300 mM NaCl, 10 mM MgCl2, 10% glycerol, with 1x kinetics buffer, 1 mM ADP, 1 mM DTT, 0.1 mM PLP); 293 K, Octet RED96; 1:1 interaction model; details: both partners purified
[5] = target: T1, LdcI (acid stress-inducible lysine …); assay: BLI; biotinylated RavA-AviTag incubated with 1 mM ADP for 10 min, on streptavidin biosensors, quenched with biocytin; LdcI 500-31.25 nM in solution; pH 7.0 (1x HBS: 25 mM HEPES, 300 mM NaCl, 10 mM MgCl2, 10% glycerol, with 1x kinetics buffer, 1 mM ADP, 1 mM DTT, 0.1 mM PLP); 293 K, Octet RED96; 1:1 interaction model; details: both partners purified
[6] = target: B3; assay: BLI; biotinylated RavA-AviTag (pre-incubated with 1 mM ADP) immobilised on streptavidin biosensors; LdcI 500-31.25 nM in solution; Octet RED96, 293 K; pH 8 (Tris), 7 (HEPES), 6.5 and 5 (MES), 300 mM NaCl, 10 mM MgCl2, 10% glycerol, 0.1% BSA, 0.02% Tween-20, 1 mM ADP, 1 mM DTT, 0.1 mM PLP; 1:1 interaction model; averages over the four pH values; details: both partners purified
[7] = target: the molecule itself; assay: cryo-EM structure; purified LdcI and RavA mixed at about 4.5:2 RavA:LdcI monomers; 20 mM Tris pH 7.9, 300 mM NaCl, 2 mM ADP, 10 mM MgCl2, 0.1 mM PLP, 1 mM DTT; room temperature; maps of Class 1 and Class 2 without symmetry imposed
[8] = target: B3; assay: as above; details: both partners purified

B1: biotinylated RavA-AviTag (enzyme)
chain: not shown
modifications: biotin (biotinylated AviTag)
notes: MoxR AAA+ ATPase RavA of E. coli, cloned in the p11 vector (N-terminal cleavable HIS-tag) with a C-terminal AviTag added; The methods describe biotinylation during expression (D-biotin in the medium), the results say 'in vitro biotinylated'; source: E. coli BL-21 DE3 (100 μM D-biotin in the LB medium, overnight, 20 °C), purified to homogeneity; not shown: AviTag, C-terminal, kept
- Kd [1]: 27.1 nM
- koff [1]: 0.00074 s⁻¹
- kon [1]: 27300 M⁻¹ s⁻¹
- Kd [2]: 46.3 nM
- koff [2]: 0.000987 s⁻¹
- kon [2]: 21300 M⁻¹ s⁻¹
- Kd [3]: 20.9 nM
- koff [3]: 0.000538 s⁻¹
- kon [3]: 25700 M⁻¹ s⁻¹
- Kd [4]: 44.2 nM
- koff [4]: 0.00131 s⁻¹
- kon [4]: 29600 M⁻¹ s⁻¹
- Kd [5]: 26.7 nM
- koff [5]: 0.000659 s⁻¹
- kon [5]: 24700 M⁻¹ s⁻¹

B2: biotinylated RavA-AviTag (enzyme)
chain: not shown
modifications: biotin (biotinylated AviTag)
notes: RavA of E. coli cloned in the p11 vector (N-terminal cleavable HIS-tag) with a C-terminal AviTag added; Incubated with 1 mM ADP for 10 min before BLI; also called AviTag-containing RavA; source: E. coli BL-21 DE3 (100 μM D-biotin in the LB medium, overnight, 20 °C), purified to homogeneity; not shown: AviTag, C-terminal, kept
- Kd [6]: 20 nM to 40 nM (2×) and 29.7 nM
- koff [6]: 0.000811 s⁻¹
- kon [6]: 26800 M⁻¹ s⁻¹

Binder: B3
- stoichiometry N [7]: 10

B4: MoxR AAA+ ATPase RavA (enzyme)
chain: not shown
notes: RavA, MoxR family AAA+ ATPase of E. coli, encoded by the ravAviaA operon; cloned in the p11 vector (N-terminal cleavable HIS-tag); Hexamer (spiral or C2-symmetric closed ring) by cryo-EM with ADP; also called free RavA; RavA-ADP
- binding result [8]: binds
- stoichiometry N [7]: 6
